# Source: patent US20250066483A1
# B1: rat anti-bovine PD-1 monoclonal antibody 5D2 (antibody, V domains shown)
# VH: QVQLKETGPGLVQPTQTLSITCTVSGFSLTSYYIQWVRQTPGKGLEWMGFIRSGGSTEYNSEFKSRLSINRDTSKNQVFLKMNSLKTEDTGVYYCARTSSGYEGGFDYWGQGVMVTVSS
# VL: DVVLTQTPVSLSVTLGDQASISCRSSQSLEYSDGYTYLEWYLQKPGQSPQLLIYGVSNRFSGVPDRFIGSGSGTDFTLKISRVEPEDLGVYYCFQATHDPDTFGAGTKLELK
# Biological target: bovine PD-1-His (bovine)
# Test: SPR (Biacore X100), bovine PD-1-His immobilised on a CM5 chip, antibody as analyte, single kinetics, 3 repeats
binder,measurement,value
B1,Kd,12.2 nM
same,koff,0.000215 s⁻¹
same,kon,18400 M⁻¹ s⁻¹
